US20110311550A1 (Scripps Research, published 2011)

Columns and labels:
Assay in all cases: ELISA, lectin-captured E1E2 lysate, Ab 1 ug/ml
[1] = target: E1E2 complex (H77) with E1 mutation Y192A (HCV genotype 1a, isolate H77, UniProt P27958 193-383; P27958 384-746)
[2] = target: E1E2 complex (H77) with E1 mutation S198A (HCV genotype 1a, isolate H77, UniProt P27958 192-383; P27958 384-746)
[3] = target: E1E2 complex (H77) with E1 mutation N205A (HCV genotype 1a, isolate H77, UniProt P27958 192-383; P27958 384-746)
[4] = target: E1E2 complex (H77) with E1 mutation H222A (HCV genotype 1a, isolate H77, UniProt P27958 192-383; P27958 384-746)
[5] = target: E1E2 complex (H77) with E1 mutation G225A (HCV genotype 1a, isolate H77, UniProt P27958 192-383; P27958 384-746)
[6] = target: E1E2 complex (H77) with E1 mutation V246A (HCV genotype 1a, isolate H77, UniProt P27958 192-383; P27958 384-746)
[7] = target: E1E2 complex (H77) with E1 mutation T255A (HCV genotype 1a, isolate H77, UniProt P27958 192-383; P27958 384-746)
[8] = target: E1E2 complex (H77) with E1 mutation R259A (HCV genotype 1a, isolate H77, UniProt P27958 192-383; P27958 384-746)
[9] = target: E1E2 complex (H77) with E1 mutation Y276A (HCV genotype 1a, isolate H77, UniProt P27958 192-383; P27958 384-746)
[10] = target: E1E2 complex (H77) with E1 mutation G282A (HCV genotype 1a, isolate H77, UniProt P27958 192-383; P27958 384-746)
[11] = target: E1E2 complex (H77) with E1 mutation H298A (HCV genotype 1a, isolate H77, UniProt P27958 192-383; P27958 384-746)
[12] = target: E1E2 complex (H77) with E1 mutation N196A/N234A (HCV genotype 1a, isolate H77, UniProt P27958 192-383; P27958 384-746)
[13] = target: E1E2 complex (H77) with E1 mutation M318A (HCV genotype 1a, isolate H77, UniProt P27958 192-383; P27958 384-746)
[14] = target: E1E2 complex (H77) with E1 mutation A319G (HCV genotype 1a, isolate H77, UniProt P27958 192-383; P27958 384-746)
[15] = target: E1E2 complex (H77) with E1 mutation W320A (HCV genotype 1a, isolate H77, UniProt P27958 192-383; P27958 384-746)
[16] = target: E1E2 complex (H77) with E1 mutation M322A (HCV genotype 1a, isolate H77, UniProt P27958 192-383; P27958 384-746)
[17] = target: E1E2 complex (H77) with E1 mutation T329A (HCV genotype 1a, isolate H77, UniProt P27958 192-383; P27958 384-746)
[18] = target: E1E2 complex (H77) with E1 mutation P341A (HCV genotype 1a, isolate H77, UniProt P27958 192-383; P27958 384-746)
[19] = target: E1E2 complex (H77) with E1 mutation D346A (HCV genotype 1a, isolate H77, UniProt P27958 192-383; P27958 384-746)
[20] = target: E1E2 complex (H77) with E1 mutation W353A (HCV genotype 1a, isolate H77, UniProt P27958 192-383; P27958 384-746)
[21] = target: E1E2 complex (H77) with E1 mutation N305A/N209A (HCV genotype 1a, isolate H77, UniProt P27958 192-383; P27958 384-746)
[22] = target: E1E2 complex (H77) with E2 mutation N428A (HCV genotype 1a, isolate H77, UniProt P27958 192-383; P27958 384-746)

B1: N4 IgG (antibody, V domains shown)
VH: VQLLEQSGPEVKKPGDSLRISCKMSGDSLVTTWIGWVRQKPGQGLEWMGIINPGDSSTNIYPGDSATRYGPSFQGQVTISIDKSTSTAYLQWNNVKASDTGIYYCARHVPVPISGTFLWREREMHDFGYFDDWGQGTLVIVSS
VL: ELTLTQSPGTLSLSPGERATLSCRASQSVSNNYLAWYQQKPGQAPRLLIYGASSRATGIPDRFSGSGSGTGFTLIISRLEPEDFAVYYCQQYGSSSITFGQGTRLEIKR
notes: also called IgG N4
Binding relative to wt (%) [1]: 122% | Binding relative to wt (%) [2]: 78% | Binding relative to wt (%) [3]: 3% | Binding relative to wt (%) [4]: 44% | Binding relative to wt (%) [5]: 79% | Binding relative to wt (%) [6]: 97% | Binding relative to wt (%) [7]: 96% | Binding relative to wt (%) [8]: 102% | Binding relative to wt (%) [9]: 103% | Binding relative to wt (%) [10]: 128% | Binding relative to wt (%) [11]: 62% | Binding relative to wt (%) [12]: 32% | Binding relative to wt (%) [13]: 92% | Binding relative to wt (%) [14]: 113% | Binding relative to wt (%) [15]: 121% | Binding relative to wt (%) [16]: 143% | Binding relative to wt (%) [17]: 114% | Binding relative to wt (%) [18]: 105% | Binding relative to wt (%) [19]: 83% | Binding relative to wt (%) [20]: 70% | Binding relative to wt (%) [21]: 17% | Binding relative to wt (%) [22]: 98%
